Patent US20230067770A1 (SHANGHAI HENLIUS BIOTECH, published 2023)

B1: Anti-CD137 2-9 IgG2 (antibody, V domains shown)
VH: QVQLVQSGAEVKKPGASVKASCKASGFNIQDTYIHWVRQAPGQGLEWMGRIDPANGNSEYAQKFQGRVTMTRDTSTSTVYMELSSLRSEDTAVYYCTTGNLHYALMDYWGQGTSVTVSS
VL: DIQMTQSPSSVSASVGDRVTITCKASQPINTYLSWYQQKPGKAPKLLIYRVNRKVDGVPSRFSGSGSGTDFTLTISSLQPEDFATYYCLQYLDFPYTFGGGTKLEIKR
notes: also called clone 2-9 IgG2 wt; 2-9 IgG2 wildtype
B2: aCD137-scFv-αEGFR-IgG1-Linker7 (bispecific antibody)
heavy: not shown
light: EIVLTQSPATLSLSPGERATLSCRASQSIGTNIHWYQQKPGQAPRLLIKYASESISGIPARFSGSGSGTDFTLTISSLEPEDFAVYYCQQNNNWPTSFGGGTKVEIKRTVAAPSVFIFPPSDEQLKSGTASVVCLLNNFYPREAKVQWKVDNALQSGNSQESVTEQDSKDSTYSLSSTLTLSKADYEKHKVYACEVTHQGLSSPVTKSFNRGEC
notes: also called Anti-EGFR HC-anti-CD137 scFv-IgG1-Linker 7 (HCC)
B3: Anti-CD137 scFv x anti-EGFR IgG1 HCC (bispecific antibody)
heavy: not shown
light: B2 light
notes: The tie rests on the label only; also called 2-9scFv-αEGFR2-HC-C; anti-CD137×EGFR bispecific antibody
B4: aCD137-scFv-αEGFR-IgG1-Linker 10 (bispecific antibody)
heavy: not shown
light: B2 light
B5: aCD137-scFv-αEGFR-IgG1-LALA-Linker 10 (bispecific antibody)
heavy: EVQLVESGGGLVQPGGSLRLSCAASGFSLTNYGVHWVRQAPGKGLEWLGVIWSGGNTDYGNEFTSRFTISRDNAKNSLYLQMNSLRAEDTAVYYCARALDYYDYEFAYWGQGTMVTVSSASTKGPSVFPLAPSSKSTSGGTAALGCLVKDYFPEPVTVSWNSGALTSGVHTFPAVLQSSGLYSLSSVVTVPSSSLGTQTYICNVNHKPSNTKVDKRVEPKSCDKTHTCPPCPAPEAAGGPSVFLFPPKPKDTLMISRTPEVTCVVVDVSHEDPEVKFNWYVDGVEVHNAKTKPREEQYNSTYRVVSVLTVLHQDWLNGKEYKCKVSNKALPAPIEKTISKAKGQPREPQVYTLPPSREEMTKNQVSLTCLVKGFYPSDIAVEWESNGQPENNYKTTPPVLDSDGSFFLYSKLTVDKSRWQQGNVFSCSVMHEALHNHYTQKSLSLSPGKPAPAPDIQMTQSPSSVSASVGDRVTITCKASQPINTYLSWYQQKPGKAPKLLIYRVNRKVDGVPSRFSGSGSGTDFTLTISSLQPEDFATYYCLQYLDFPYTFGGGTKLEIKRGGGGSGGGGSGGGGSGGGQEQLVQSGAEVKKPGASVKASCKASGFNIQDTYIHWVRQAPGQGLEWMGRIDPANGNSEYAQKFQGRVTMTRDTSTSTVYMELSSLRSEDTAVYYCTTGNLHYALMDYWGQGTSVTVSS
light: B2 light
notes: The Linker 10 bispecific with the LALA mutation in the IgG1 Fc; also called Anti-EGFR HC-anti-CD137 scFv-IgG1 LALA-Linker 10 (HCC)
B6: aCD137scFv-αEGFR-IgG1-LALA (Linker 7) (bispecific antibody)
heavy: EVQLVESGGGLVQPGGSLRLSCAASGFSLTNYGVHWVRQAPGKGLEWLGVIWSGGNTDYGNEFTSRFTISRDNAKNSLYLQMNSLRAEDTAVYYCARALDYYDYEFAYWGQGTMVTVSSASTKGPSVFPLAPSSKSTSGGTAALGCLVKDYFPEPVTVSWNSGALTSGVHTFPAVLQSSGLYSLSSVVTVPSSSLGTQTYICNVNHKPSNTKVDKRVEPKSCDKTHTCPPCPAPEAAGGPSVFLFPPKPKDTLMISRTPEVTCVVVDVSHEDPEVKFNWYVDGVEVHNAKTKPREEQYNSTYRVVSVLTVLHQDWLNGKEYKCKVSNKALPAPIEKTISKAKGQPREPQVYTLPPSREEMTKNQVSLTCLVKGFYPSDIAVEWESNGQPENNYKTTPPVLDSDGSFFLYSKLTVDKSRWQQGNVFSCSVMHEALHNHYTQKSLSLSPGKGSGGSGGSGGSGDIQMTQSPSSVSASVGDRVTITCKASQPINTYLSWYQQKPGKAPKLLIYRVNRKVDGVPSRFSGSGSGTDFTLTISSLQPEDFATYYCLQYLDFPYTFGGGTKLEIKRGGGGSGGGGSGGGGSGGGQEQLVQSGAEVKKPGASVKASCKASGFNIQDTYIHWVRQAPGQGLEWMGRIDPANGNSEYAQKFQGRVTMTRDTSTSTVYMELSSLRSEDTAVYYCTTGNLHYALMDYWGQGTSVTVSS
light: B2 light
notes: The Linker 7 bispecific with the LALA mutation in the IgG1 Fc; also called Anti-EGFR-HC-anti-CD137 scFv-IgG1-LALA-Linker 7 (HCC); αCD137scFv-αEGFR-IgG1 LALA

Tests used:
[1] = target: T1, mouse CD137 (mouse, UniProt P20334 24-187, limits assumed); assay: biolayer interferometry (Octet Red 96), antibody captured on AHC sensor
T1 sequence (looked up): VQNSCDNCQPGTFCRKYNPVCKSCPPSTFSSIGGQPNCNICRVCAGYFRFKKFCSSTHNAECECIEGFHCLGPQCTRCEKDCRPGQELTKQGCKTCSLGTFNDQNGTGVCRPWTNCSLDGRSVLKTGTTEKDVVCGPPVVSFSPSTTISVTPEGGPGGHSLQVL

[2] = target: T2, Human CD137-his (human, UniProt Q07011 24-186); assay: BLI (Octet Red 96), antibody captured on AHC sensor, 1:1 Langmuir fit
T2 construct: Bought reagent; also called Human CD137-His (Sino Biological, 10041-H08H)
Protocol: (§1) Biolayer interferometry was used to measure the association and dissociation constants for the binding kinetics of bispecific antibodies. The binding kinetics was measured on a FortieBio Octet Red 96 at 30° C. and analyzed with the FortieBio Data Analysis 9.0 software. Anti-human-IgG Fc (AHC) sensor was used to capture the bispecific or control antibodies. Double binding was performed by association with the first antigen, then dissociation, and association with the second antigen, then dissociation. A regeneration cycle with 20 mM glycine, pH 1.5 was used between different antibody cycles. The 1×kinetic buffer (FortieBio) was used for baseline. Human CD137-His (Sino Biologicals Cat: 10041-H08H) and rhesus CD137-His protein (Sino Biologicals Cat: 90847-K08H) were diluted into kinetic buffer in a series of concentrations. A kinetic buffer only well was set as a reference well for subtraction during data processing. Data were fitted with a 1:1 Langmuir model for association and dissociation using Rmax linked global fitting for each antibody-antigen binding. Human CD137-his is a recombinant CD137 protein with a poly histidine tag fused to C-terminus of human CD137 antigen (Sino Biological, 10041-H08H). Human EGFR-his is a recombinant EGFR protein with a poly histidine tag fused to C-terminus of human EGFR antigen (Acro Biosystem, EGR-H5222-100 ug).

[3] = target: T3, Cyno CD137-his (cynomolgus monkey, UniProt A9YYE7 24-186); assay: as above
T3 construct: Bought reagent; also called cynomolgus monkey CD137; cynomolgus CD137 (Sino Biological, 90847-K02H-100)
T3 sequence: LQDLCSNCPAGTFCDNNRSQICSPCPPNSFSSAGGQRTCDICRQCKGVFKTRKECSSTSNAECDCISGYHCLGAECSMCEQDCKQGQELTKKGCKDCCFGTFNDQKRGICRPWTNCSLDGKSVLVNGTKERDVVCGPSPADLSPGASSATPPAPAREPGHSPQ
Protocol: (§2) Biolayer interferometry was used to measure the association and dissociation constants for the binding kinetics of the anti-CD137 antibodies. The binding kinetics was measured on a FortieBio Octet Red 96 at 30° C. and analyzed with the FortieBio Data Analysis 9.0 software. Anti-human-IgG Fc (AHC) sensor was used to capture the anti-CD137 antibodies or control antibodies. A kinetic buffer only well was set as a reference well for subtraction during data processing. Data were fitted with a 1:1 Langmuir model for association and dissociation using Rmax linked global fitting for each antibody-antigen binding. Human CD137-his is a recombinant CD137 antigen with a poly histidine tag fused to C-terminus of human CD137 antigen (Sino Biological, 10041-H08H). Cyno CD137-his is a recombinant CD137 antigen with a poly histidine tag fused to C-terminus of cynomolgus CD137 antigen (Sino Biological, 90847-K02H-100).

[4] = target: T2, Human CD137-his; assay: as above; remark: listed apart in the source
Protocol: as §2

[5] = target: T2, Human CD137-his; assay: BLI (Octet), second round, antibody captured on AHC sensor
Protocol: as §2

[6] = target: T4, CD137 on CD137 stably transfected 293T cells (UniProt Q07011 24-255, limits assumed); assay: flow cytometry, whole cell binding to CD137/NFkB 293T cells, Alexa Fluor 488 anti-human IgG F(ab')2 secondary, median fluorescence intensity
T4 construct: whole, on cells; also called CD137/NF-κB reporter cells
Protocol: (§3) The binding affinity of bispecific antibodies to cell surface receptors was also quantified in whole cell binding assay. […] Afterwards, cells were washed with PBS twice and then incubated with secondary Alexa Fluor® 488 AffiniPure Goat Anti-Human IgG, F(ab′)2 fragment specific antibody (Jackson ImmunoResearch, Code 109-545-006) for 30 min at 4° C. in FACS buffer. The cells were then washed with PBS twice and resuspended in FACS buffer. […] The median fluorescence intensity was fitted using a non-linear model with GraphPad 8.0.
(§4) The anti-CD137×EGFR bispecific antibodies included variants with IgG1 wild type Fc, IgG1 Fc with LALA mutation and different linkers.

[7] = target: T5, EGFR on SK-Hep1 cells (UniProt P00533 25-1210, limits assumed); assay: flow cytometry, whole cell binding to SKHep1 EGFR high cells, Alexa Fluor 488 anti-human IgG F(ab')2 secondary, median fluorescence intensity
T5 construct: whole, on cells; also called EGFR positive SK-Hep1 tumor cells; EGFR high SK-Hep1 cells
Protocol: as §3, §4

[8] = target: T6, Human EGFR-his (human, UniProt P00533 25-645); assay: BLI (Octet Red 96), antibody captured on AHC sensor, 1:1 Langmuir fit
T6 construct: Bought reagent; also called EGFR-His (Acro Biosystem, EGR-H5222-100 ug)
Protocol: as §1

T4 sequence (Q07011 24-255 limits assumed): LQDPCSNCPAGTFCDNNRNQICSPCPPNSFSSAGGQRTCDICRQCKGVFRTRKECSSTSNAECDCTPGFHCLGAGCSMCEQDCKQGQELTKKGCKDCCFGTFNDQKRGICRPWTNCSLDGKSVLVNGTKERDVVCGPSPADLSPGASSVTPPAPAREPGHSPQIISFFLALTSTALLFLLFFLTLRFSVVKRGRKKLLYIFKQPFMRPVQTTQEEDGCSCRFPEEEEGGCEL

Binder | Kd [2] [nM] | koff [2] [s⁻¹] | kon [2] [M⁻¹ s⁻¹] | EC50 (read off the curve) [6] [nM] | EC50 (read off the curve) [7] [nM] | also measured
B1 | 4.52 | 0.000299 | 66200 |  |  | binding result [1]: no binding; Kd [3]: 2.76 nM; koff [3]: 0.000712 s⁻¹; kon [3]: 258000 M⁻¹ s⁻¹; Kd [4]: 9.33 nM; koff [4]: 0.000869 s⁻¹; kon [4]: 93100 M⁻¹ s⁻¹; Kd [5]: 5.5 nM; koff [5]: 0.000314 s⁻¹; kon [5]: 57100 M⁻¹ s⁻¹
B2 |  |  |  | ~10 | ~0.3 | 
B3 | 6.25 | 0.000116 | 18600 |  |  | Kd [8]: 2.45 nM; koff [8]: 0.000991 s⁻¹; kon [8]: 404000 M⁻¹ s⁻¹
B4 |  |  |  | ~10 | ~0.3 | 
B5 |  |  |  | ~10 | ~0.2 | 
B6 |  |  |  | ~10 | ~0.2 | 
